Measurements: patent publication US5296352

Molecular target: recombinant hirudin variant HV1 (Hirudo medicinalis)

Row | Substance | extent of digestion (cleavage of rHV1)
1 | lysyl endopeptidase (enzyme) | 100%
2 | Staphylococcus aureus strain V8 protease (from UniProt P0C1U8) (enzyme) | 97%
